From the DeepSol protein solubility set

Assay: soluble on expression in E. coli; label from the status in PepcDB or PDB records

Row | Sequence | soluble on expression in E. coli
1 | MAHHHHHHMQTATAPFILRSLYKDAYISDMQIARPITELMMNTIGAQLTNKYDTHIPAIACSLYTLFSMSRVQTLGQEFCDLLPVVKAHPWQPVGPARVLLLAVLQLVEPTAVFVVARKLFPDLSTADVEEVLRKAVLCALFLFERFGTLPHRIARVRFLSLKPSRTLQDSDGAPGSYLVLGLVLLVELVVRLWRYSKERTSREAKRSTEAAVITSSDEDAEDARSGKCMLCLSNRKCPTATNCGHIFCWRCIAEWIQSNPQEAVCPFCRQHITTQSLVPLYFYVAKEPPRVGTATDAAAPPAA | soluble
2 | MEAEGFPRLFHNFENVPEPKECKKVGSVPSYLTGTMLRNGPGMFTVGEEEYKHWFDGLGFMQRYHFEDGKMFYSARYLESEAYTKTVEAQRIVAGTFGTLSFPDPCKTIFSKYFSEFMNHSEKHDNSNVAFTPVGDSLYACTETPHMYRVDLDTLKTLEAADFSKFVAVHSCTAHQLYDENGDVYNIGSRFGPESAHVFTVTKNPKNQKSENDHSWEHTSKIGEIKASDPLYPTYMHSFGMSENYLVMFESPVRLHLQKYLLSEFVRATYHDCLEWHGDKDVSIFILNKKTGEQLPLTLKMNPFFTFHHANTFEKDGCLVMDYCRIENAGKFDTLLISNMKTGEFQYDAKFLPYLTRVIVPMSVSSSAKPGDNLLKSVPWASGCTSILQDDGSIRLTERRVCETSMEFPRYHWEKINMKEYRYVFGSTVFGRIDGNLAGVVKADLKFGNHLIWNRENPHQICGEPIFVPNPEGIEEDDGILIVPIMSSSEKQVPFVLILDAKTLEETARFEIPEARIPLGFHAFYKPKN | not soluble
3 | MSLTMPAESAATVRGRRYPADPEWFCDFRTFPVQGLGPEVGVHRRDPSSVLTVDGRYHVWYTRSTGETDGFGTGDPMAKVFPWDWSEIWHATSDDGATWVEQGRALGRGEPGSYDDRSVFTPEVLEHQGWFYLVYQVIRSPYALRSFESIAMAKAPSPDGPWVRSPQPILRPQADGEWAGEEDNRLSVVSQGSFDSHKVHDPILVPFQGRFFLYYKGEQMGEGFSAGGRTTRWGLAIADDIEGPYHRCPANPVTNSGHETCVWRYGDGIAAMLTTDGPERNTIQFAPDGINFEIMAHIANPPVATGPLRLPDHAVAPLDGVRWGLCHDVTASWHYIQGFAADERQKMFYTRGLSPETAESAEADALPAPHEKEGHHHHHH | soluble
4 | MGSDKIHHHHHHNDDDDKYYYPTNFENLSLPNDTIIAKGEDLTLKPTLNLINPKIYSWKIDGKEVSNEVNYTFSTSVGGKHEIIFEAQDSKGNTDKAQITVDVFAYYGGFYVINEGWAGHDPASVNYYKDGKWNFNIVESLGQTGTVGVIQDSYMYIVAKDAPYLTQIELANFNITKQLSTEIEEQLDYGQANSFCTINETTGILTASRGAYKINLNPLSIGNMLPQLNSESANGNGCKDILKSGDYVFVNNMDTIKIYKSSDLSFVKKLTALMKTGFAQTKDGNIWAANGQSLIKIDPKTLDETTVELPDNINVFYNQWAYTPTGLCASTTENALYIVNTTVVPGAYGDSYYGKNIYKYNTESKIAQEFFKAPSKIQSIYGAGIQVNPQNGDVYLIYTEDGYGTHYLNTNIYVADGQSGTQKQIIDYTGKYWFPSSIVFK | not soluble
5 | AMDIRQVTETIAMIEEQNFDIRTITMGISLLDCIDPDINRAAEKIYQKITTKAANLVAVGDEIAAELGIPIVNKRVSVTPISLIGAATDATDYVVLAKALDKAAKEIGVDFIGGFSALVQKGYQKGDEILINSIPRALAETDKVCSSVNIGSTKSGINMTAVADMGRIIKETANLSDMGVAKLVVFANAVEDNPFMAGAFHGVGEADVIINVGVSGPGVVKRALEKVRGQSFDVVAETVKKTAFKITRIGQLVGQMASERLGVEFGIVDLSLAPTPAVGDSVARVLEEMGLETVGTHGTTAALALLNDQVKKGGVMACNQVGGLSGAFIPVSEDEGMIAAVQNGSLNLEKLEAMTAICSVGLDMIAIPEDTPAETIAAMIADEAAIGVINMKTTAVRIIPKGKEGDMIEFGGLLGTAPVMKVNGASSVDFISRGGQIPAPIHSFKN | soluble
6 | AVHITLDPDTANPWLILSEDRRQVRLGDTQQSIPGNEERFDSYPMVLGAQHFHSGKHYWEVDVTGKEAWDLGVCRDSVRRKGHFLLSSKSGFWTIWLWNKQKYEAGTYPQTPLHLQVPPCQVGIFLDYEAGMVSFYNITDHGSLIYSFSECAFTGPLRPFFSPGFNDGGKNTAPLTLCPLNIGSQG | not soluble
7 | MSMVVDSVPDSSTFVGKTIRPVAAVSIHGIVFDGERLLAVDSKNGYLLEIDPYTNNTKLLNGQYWQEFIGATGLAIADRQLWFSSGQYVYTCNLEGPDLKPEVFAWFDDPVNGVAIWESTVYITCHKRGHIWVYGRDTRKLVATFYSPGIGVENITVRGEELWVCDSAEQSVYCLDRATGEINFSLITPFESPTGLAFYDDQAVGKATLYVAYVQQEPYVRDNPNADPNHELMYRETTFIHPLYFYNDPHQCCAFSNGYLVEMRYVEELAPLDPVDLKQVEWRMALPAVTPRQRIRKIESVGLPFSRIDDVNGQKVAVFEFDQLDLDSRAVFGWRVEMEVWGIKYRLKPSDCEHLPALPEGFADRYLVDNDNLSMETDIIIRAAAEAIGRETNLLRQMFNIRNYVYDRLSYGIKPHIDTPDLALRRGVGSCGEYVGVLLALARLNGIACRTAGRYKCPPHPLQRNLPMEPDFNHVWFEFYLPGIGWLPMESNPDDTNDGGPYPTRFFMGLAWYHAETAKDVPFEQLLSQGIPVNKQVVSIGELAINHVQFTILEELDPAAHLAHLEHHHHHH | soluble
8 | MRTTYREHLDAFAQDLITMCDTVAAVVEGASTGLLEGSLQSAQHALSLSDELDEVKNRATKRAVQLLSLEAPVARDLRQIVSSIYIIEDFDRMASLAMHIASMARRRHPDLVVPEPIRGYFHEMARLCTEMSDKTRSVLVDPDADVAIVLAADDDAIDDIHEHIMTLLTKKEWPFSTRAAVEVTLLARYYERFADHTVNVAAQIVYLTTGLMPEEYKKKRDDGFEPDEMEARFAQLEEQFANYDWPKPAD | not soluble
9 | AHHHHHHGSIIAITGTPGVGKTTVARKLAEKLGCKYVNLRDFALEKGIGEVKGDELEVEVDELAYFVEKEFKGKNVVLDGHLSHLMPADLVIVLRAHPKTIAERLKERGYSKDKIGENVEAELVDVILIEALDEHENVIEVDTTGKTPEEVVNEILNLINSGIKRRVGIVDWTKVYEEIIPYLRLGGD | not soluble
10 | GPGSMRSAVTCIKSPGAALFTDTATCRTITLSRPDALNVMSLPMVQDLHRLYITEPHPNEDAVYVVRGDGRRSFCAGGDLKALTGPERDTHNPLFYRLEYEVDSHIAVMRRTQVAMWAGHVLGSGVGVSVHSRYRVACETTRFAMPETQIGGANDVATSWVFSSLPICGLGMYLAITGNALQGADVFHAGLATHYIPVEKFGAVEAALAALPSSEGVEECLRGFSEDVAVPPFTLAESAPVLAKAFGTITPWTRLRDIMDVLRADGSAFAASTLEVMERNSPLGMTLALENMKRQHTPGCNTVMESFRGDYTAIQTSIFADELAKGVEALFVTKEKRPQWTVESVDEVDVELVKQQFALTEGVRVSAGGKDGRACFGVFGCYRAQASPVG | soluble
11 | HHHHHHDEKRRPKRREIPLKVLVKAVLFACMLMRKTMASRVRVTILFATETGKSEALAWDLGALFSCAFNPKVVCMDKYRLSCLEEERLLLVVTSTFGNGDCPGNGEKLKKSLFMLKELNNKFRYAVFGLGSSMYPRFCAFAHDIDQKLSHLGASQLTPMGEGDELSGQEDAFRSWAVQTFKAACETFDVRGKQHIQIPKLYTSNVTWDPHHYRLVQDS | soluble
12 | MGGKSNGEKKYIVGFKQGFKSCAKKEDVISEKGGKLQKCFKYVDAASATLNEKAVEELKKDPSVAYVEEDKLYRALSATS | soluble
13 | MGSDKIHHHHHHMFVQARIDTTQDALVWPVVEFQGWVAFFGQRDSFDVYLNGDRVDNVHTVARPDVEEVLGAGWASIGWHVVCDIGQSARDNGHAIIFDVRVRTQTVAQGCFRYKDRLETTTQPLKIILHMPKTGGTSLRLALEEHRKNLFLLPLYHRDFSAIKSLSSLSVDRLDVAYGHVLYGIHEQIARPVTYMTVLRNPYDFVTSLYFFAKYVQRDHSILAAENIVDAVNTVNRPEFDNYYTRTIAGIQPEEPVTEEDLQRAIKNIDTHFSFIGLAERSRQSFRIFSEVFGLPLRYLKENVTPDLVEREFMNFRSVNEEIKKCINLDLILYKYAIKKFWYMDIE | not soluble
